Assay results from publication PMC314469, “Protein Interaction Networks by Proteome Peptide Scanning” (PLoS Biology, 2004).

T1: Boi1 SH3 (BOI1_YEAST), P38041
T1 chain: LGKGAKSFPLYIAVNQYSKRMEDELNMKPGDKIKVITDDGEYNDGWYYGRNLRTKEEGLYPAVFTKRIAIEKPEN

T2: Boi2 SH3 (BOI2_YEAST), P39969
T2 chain: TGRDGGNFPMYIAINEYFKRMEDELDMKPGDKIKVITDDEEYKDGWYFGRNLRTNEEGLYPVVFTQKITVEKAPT

T3: Rvs167 SH3 (RV167_YEAST), P39743
T3 chain: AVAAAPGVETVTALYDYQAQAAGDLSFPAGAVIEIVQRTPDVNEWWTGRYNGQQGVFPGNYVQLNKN

T4: Yfr024 SH3 (LSB3_YEAST), P43603
T4 chain: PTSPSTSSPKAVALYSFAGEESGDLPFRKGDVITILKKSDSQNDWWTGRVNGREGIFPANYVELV

T5: Myo5 SH3 (MYO5_YEAST), Q04439
T5 chain: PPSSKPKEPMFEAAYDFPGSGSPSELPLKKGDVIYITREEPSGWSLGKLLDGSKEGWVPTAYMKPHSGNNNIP

T6: Yhr016c SH3 (YSC84_YEAST), P32793
T6 chain: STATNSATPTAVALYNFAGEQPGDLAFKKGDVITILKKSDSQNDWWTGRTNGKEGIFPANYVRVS


Target: T1, Boi1 SH3 (BOI1_YEAST), P38041
Test: SPOT array

Row | normalised SPOT signal, Boehringer light units (BLU); mean over the file's lines of this peptide | Binder
1 | 1950 | APVVKSEPSLPRMR [YJL083W 57-70]
2 | 382 | AKLHRTKPVKPLSK [YLR430W 1004-1017]
3 | 4780 | ALLRRTIPKRPFYH [YDL142C 12-25]
4 | 571 | AKSNKVSPEDPAVQ [YLR081W 283-296]
5 | 426 | AKVNKSPPDHPYIQ [YHR094C 277-290]

The remaining lines, values behind:

Row | Binder | normalised SPOT signal, Boehringer light units (BLU); mean over the file's lines of this peptide
6 | ALSTKGYPHEPPLL [YGR172C 61-74] | 193
7 | AKLRKFHPPEPYKG [YHR147C 183-196] | 274
8 | ALLIKTVPGFPLLE [YGR061C 138-151] | 78.5
9 | ALWAKFFPEKPLNI [YGR024C 111-124] | 103
10 | APPPKEEPAAPTST [YGR162W 923-936] | 76.3
11 | AKTNKNVPVLPTPG [YDL195W 766-779] | 1420
12 | ALEERFDPKSPTKR [YMR129W 520-533] | 948
13 | AMESRVAPEIPGLI [YGL130W 4-17] | 82.6

Target: T2, Boi2 SH3 (BOI2_YEAST), P39969
Test: SPOT array

Row | normalised SPOT signal, Boehringer light units (BLU); mean over the file's lines of this peptide | Binder
14 | 17.7 | APVVKSEPSLPRMR [YJL083W 57-70]
15 | 4.6 | AKLHRTKPVKPLSK [YLR430W 1004-1017]
16 | 253 | ALLRRTIPKRPFYH [YDL142C 12-25]
17 | 24.3 | AKSNKVSPEDPAVQ [YLR081W 283-296]
18 | 20.2 | AKVNKSPPDHPYIQ [YHR094C 277-290]

The remaining lines, values behind:

Row | Binder | normalised SPOT signal, Boehringer light units (BLU); mean over the file's lines of this peptide
19 | ALSTKGYPHEPPLL [YGR172C 61-74] | 12.6
20 | AKLRKFHPPEPYKG [YHR147C 183-196] | 34.8
21 | ALLIKTVPGFPLLE [YGR061C 138-151] | 48
22 | ALWAKFFPEKPLNI [YGR024C 111-124] | 18.8
23 | APPPKEEPAAPTST [YGR162W 923-936] | 3.5
24 | AKTNKNVPVLPTPG [YDL195W 766-779] | 70.7
25 | ALEERFDPKSPTKR [YMR129W 520-533] | 13.4
26 | AMESRVAPEIPGLI [YGL130W 4-17] | 0

Target: T3, Rvs167 SH3 (RV167_YEAST), P39743
Test: SPOT array

Row | normalised SPOT signal, Boehringer light units (BLU); mean over the file's lines of this peptide | Binder
27 | 70.8 | APVVKSEPSLPRMR [YJL083W 57-70]
28 | 34.5 | AKLHRTKPVKPLSK [YLR430W 1004-1017]
29 | 1850 | ALLRRTIPKRPFYH [YDL142C 12-25]
30 | 159 | AKSNKVSPEDPAVQ [YLR081W 283-296]
31 | 53 | AKVNKSPPDHPYIQ [YHR094C 277-290]

Further lines, the binder ahead of its results:

Row | Binder | normalised SPOT signal, Boehringer light units (BLU); mean over the file's lines of this peptide
32 | ALSTKGYPHEPPLL [YGR172C 61-74] | 63.8
33 | AKLRKFHPPEPYKG [YHR147C 183-196] | 48.5
34 | ALLIKTVPGFPLLE [YGR061C 138-151] | 11.8
35 | ALWAKFFPEKPLNI [YGR024C 111-124] | 50.7
36 | APPPKEEPAAPTST [YGR162W 923-936] | 15.9
37 | AKTNKNVPVLPTPG [YDL195W 766-779] | 136
38 | ALEERFDPKSPTKR [YMR129W 520-533] | 56.3
39 | AMESRVAPEIPGLI [YGL130W 4-17] | 60.5

Target: T4, Yfr024 SH3 (LSB3_YEAST), P43603
Test: SPOT array

Row | normalised SPOT signal, Boehringer light units (BLU); mean over the file's lines of this peptide | Binder
40 | 512 | APVVKSEPSLPRMR [YJL083W 57-70]
41 | 162 | AKLHRTKPVKPLSK [YLR430W 1004-1017]
42 | 7070 | ALLRRTIPKRPFYH [YDL142C 12-25]
43 | 142 | AKSNKVSPEDPAVQ [YLR081W 283-296]
44 | 39.4 | AKVNKSPPDHPYIQ [YHR094C 277-290]

The remaining lines, values behind:

Row | Binder | normalised SPOT signal, Boehringer light units (BLU); mean over the file's lines of this peptide
45 | ALSTKGYPHEPPLL [YGR172C 61-74] | 26.8
46 | AKLRKFHPPEPYKG [YHR147C 183-196] | 128
47 | ALLIKTVPGFPLLE [YGR061C 138-151] | 39.7
48 | ALWAKFFPEKPLNI [YGR024C 111-124] | 405
49 | APPPKEEPAAPTST [YGR162W 923-936] | 5.8
50 | AKTNKNVPVLPTPG [YDL195W 766-779] | 97.7
51 | ALEERFDPKSPTKR [YMR129W 520-533] | 4.1
52 | AMESRVAPEIPGLI [YGL130W 4-17] | 517

Target: T5, Myo5 SH3 (MYO5_YEAST), Q04439
Test: SPOT array

Row | normalised SPOT signal, Boehringer light units (BLU); mean over the file's lines of this peptide | Binder
53 | 241 | APVVKSEPSLPRMR [YJL083W 57-70]
54 | 502 | AKLHRTKPVKPLSK [YLR430W 1004-1017]
55 | 914 | ALLRRTIPKRPFYH [YDL142C 12-25]
56 | 371 | AKSNKVSPEDPAVQ [YLR081W 283-296]
57 | 164 | AKVNKSPPDHPYIQ [YHR094C 277-290]

Continued, binder first:

Row | Binder | normalised SPOT signal, Boehringer light units (BLU); mean over the file's lines of this peptide
58 | ALSTKGYPHEPPLL [YGR172C 61-74] | 139
59 | AKLRKFHPPEPYKG [YHR147C 183-196] | 119
60 | ALLIKTVPGFPLLE [YGR061C 138-151] | 144
61 | ALWAKFFPEKPLNI [YGR024C 111-124] | 154
62 | APPPKEEPAAPTST [YGR162W 923-936] | 117
63 | AKTNKNVPVLPTPG [YDL195W 766-779] | 130
64 | ALEERFDPKSPTKR [YMR129W 520-533] | 108
65 | AMESRVAPEIPGLI [YGL130W 4-17] | 426

Target: T6, Yhr016c SH3 (YSC84_YEAST), P32793
Test: SPOT array

Row | normalised SPOT signal, Boehringer light units (BLU); mean over the file's lines of this peptide | Binder
66 | 63.5 | APVVKSEPSLPRMR [YJL083W 57-70]
67 | 42.3 | AKLHRTKPVKPLSK [YLR430W 1004-1017]
68 | 972 | ALLRRTIPKRPFYH [YDL142C 12-25]
69 | 12.5 | AKSNKVSPEDPAVQ [YLR081W 283-296]
70 | 18.6 | AKVNKSPPDHPYIQ [YHR094C 277-290]

Continued, binder first:

Row | Binder | normalised SPOT signal, Boehringer light units (BLU); mean over the file's lines of this peptide
71 | ALSTKGYPHEPPLL [YGR172C 61-74] | 15.2
72 | AKLRKFHPPEPYKG [YHR147C 183-196] | 32.7
73 | ALLIKTVPGFPLLE [YGR061C 138-151] | 7.6
74 | ALWAKFFPEKPLNI [YGR024C 111-124] | 75.9
75 | APPPKEEPAAPTST [YGR162W 923-936] | 0.6
76 | AKTNKNVPVLPTPG [YDL195W 766-779] | 30.3
77 | ALEERFDPKSPTKR [YMR129W 520-533] | 63.6
78 | AMESRVAPEIPGLI [YGL130W 4-17] | 45.4

These binders were tested against Sho1 SH3 (SHO1_YEAST), P40073 (assay: SPOT array).
Chain of Sho1 SH3 (SHO1_YEAST), P40073 (P40073 295-366): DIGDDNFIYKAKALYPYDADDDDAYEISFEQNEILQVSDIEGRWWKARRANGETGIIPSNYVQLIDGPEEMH

Row | normalised SPOT signal, Boehringer light units (BLU); mean over the file's lines of this peptide | Binder
79 | 49.7 | APVVKSEPSLPRMR [YJL083W 57-70]
80 | 109 | AKLHRTKPVKPLSK [YLR430W 1004-1017]
81 | 34.4 | ALLRRTIPKRPFYH [YDL142C 12-25]
82 | 44.1 | AKSNKVSPEDPAVQ [YLR081W 283-296]
83 | 32.9 | AKVNKSPPDHPYIQ [YHR094C 277-290]

The next lines start with the binder.

Row | Binder | normalised SPOT signal, Boehringer light units (BLU); mean over the file's lines of this peptide
84 | ALSTKGYPHEPPLL [YGR172C 61-74] | 35.4
85 | AKLRKFHPPEPYKG [YHR147C 183-196] | 133
86 | ALLIKTVPGFPLLE [YGR061C 138-151] | 22.1
87 | ALWAKFFPEKPLNI [YGR024C 111-124] | 115
88 | APPPKEEPAAPTST [YGR162W 923-936] | 37.7
89 | AKTNKNVPVLPTPG [YDL195W 766-779] | 91.3
90 | ALEERFDPKSPTKR [YMR129W 520-533] | 33.3
91 | AMESRVAPEIPGLI [YGL130W 4-17] | 47.7
